Reference: IntAct's records for PubMed 19696174

B1: Age-related maculopathy susceptibility protein 2 (Homo sapiens), P0C7Q2 (parent)
chain: MLRLYPGPMVTEAEGKGGPEMASLSSSVVPVSFISTLRESVLDPGVGGEGASDKQRSKLSLSHSMIPAAKIHTELCLPAFFSPAGTQRRFQQPQHHLTLSIIHTAAR
B2: Age-related maculopathy susceptibility protein 2 (Homo sapiens), P0C7Q2 (parent)
chain: B1 chain
partner: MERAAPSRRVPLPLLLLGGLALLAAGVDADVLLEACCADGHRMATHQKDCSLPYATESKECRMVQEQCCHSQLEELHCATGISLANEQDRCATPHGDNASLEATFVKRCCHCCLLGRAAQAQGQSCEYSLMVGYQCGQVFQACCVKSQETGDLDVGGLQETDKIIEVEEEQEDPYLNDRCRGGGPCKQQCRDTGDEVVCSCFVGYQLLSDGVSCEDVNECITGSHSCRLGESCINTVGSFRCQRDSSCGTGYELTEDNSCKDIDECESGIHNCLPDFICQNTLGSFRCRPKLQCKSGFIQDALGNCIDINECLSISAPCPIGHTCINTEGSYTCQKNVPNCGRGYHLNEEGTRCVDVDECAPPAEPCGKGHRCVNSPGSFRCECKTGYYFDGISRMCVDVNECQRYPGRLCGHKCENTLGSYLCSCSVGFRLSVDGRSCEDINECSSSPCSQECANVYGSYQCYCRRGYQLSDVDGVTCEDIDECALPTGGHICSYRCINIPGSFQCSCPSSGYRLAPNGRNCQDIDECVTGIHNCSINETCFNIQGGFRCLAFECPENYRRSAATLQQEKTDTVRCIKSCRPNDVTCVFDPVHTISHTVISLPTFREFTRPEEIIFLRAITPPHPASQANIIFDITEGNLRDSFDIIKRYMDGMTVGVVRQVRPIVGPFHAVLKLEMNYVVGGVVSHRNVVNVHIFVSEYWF

How the values were obtained:
[1] = variants of: B1; conditions: with psg11_human PSG11, Q9UQ72
Sequence of psg11_human PSG11, Q9UQ72 (Q9UQ72 whole entry): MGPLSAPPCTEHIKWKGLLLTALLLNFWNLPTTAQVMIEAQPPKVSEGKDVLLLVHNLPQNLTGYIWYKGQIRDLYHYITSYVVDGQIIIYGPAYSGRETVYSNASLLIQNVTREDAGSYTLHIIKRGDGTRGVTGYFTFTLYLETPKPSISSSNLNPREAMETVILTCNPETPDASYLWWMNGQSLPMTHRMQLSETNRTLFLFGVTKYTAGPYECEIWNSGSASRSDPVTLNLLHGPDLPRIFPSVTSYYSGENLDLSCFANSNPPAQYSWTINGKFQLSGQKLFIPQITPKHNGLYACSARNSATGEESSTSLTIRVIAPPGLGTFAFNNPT

[2] = variants of: B1; conditions: with co1a1_human COL1A1, P02452
finc_human FN1, P02751 = variants of: B1; conditions: with finc_human FN1, P02751
Sequence of finc_human FN1, P02751 (P02751 whole entry): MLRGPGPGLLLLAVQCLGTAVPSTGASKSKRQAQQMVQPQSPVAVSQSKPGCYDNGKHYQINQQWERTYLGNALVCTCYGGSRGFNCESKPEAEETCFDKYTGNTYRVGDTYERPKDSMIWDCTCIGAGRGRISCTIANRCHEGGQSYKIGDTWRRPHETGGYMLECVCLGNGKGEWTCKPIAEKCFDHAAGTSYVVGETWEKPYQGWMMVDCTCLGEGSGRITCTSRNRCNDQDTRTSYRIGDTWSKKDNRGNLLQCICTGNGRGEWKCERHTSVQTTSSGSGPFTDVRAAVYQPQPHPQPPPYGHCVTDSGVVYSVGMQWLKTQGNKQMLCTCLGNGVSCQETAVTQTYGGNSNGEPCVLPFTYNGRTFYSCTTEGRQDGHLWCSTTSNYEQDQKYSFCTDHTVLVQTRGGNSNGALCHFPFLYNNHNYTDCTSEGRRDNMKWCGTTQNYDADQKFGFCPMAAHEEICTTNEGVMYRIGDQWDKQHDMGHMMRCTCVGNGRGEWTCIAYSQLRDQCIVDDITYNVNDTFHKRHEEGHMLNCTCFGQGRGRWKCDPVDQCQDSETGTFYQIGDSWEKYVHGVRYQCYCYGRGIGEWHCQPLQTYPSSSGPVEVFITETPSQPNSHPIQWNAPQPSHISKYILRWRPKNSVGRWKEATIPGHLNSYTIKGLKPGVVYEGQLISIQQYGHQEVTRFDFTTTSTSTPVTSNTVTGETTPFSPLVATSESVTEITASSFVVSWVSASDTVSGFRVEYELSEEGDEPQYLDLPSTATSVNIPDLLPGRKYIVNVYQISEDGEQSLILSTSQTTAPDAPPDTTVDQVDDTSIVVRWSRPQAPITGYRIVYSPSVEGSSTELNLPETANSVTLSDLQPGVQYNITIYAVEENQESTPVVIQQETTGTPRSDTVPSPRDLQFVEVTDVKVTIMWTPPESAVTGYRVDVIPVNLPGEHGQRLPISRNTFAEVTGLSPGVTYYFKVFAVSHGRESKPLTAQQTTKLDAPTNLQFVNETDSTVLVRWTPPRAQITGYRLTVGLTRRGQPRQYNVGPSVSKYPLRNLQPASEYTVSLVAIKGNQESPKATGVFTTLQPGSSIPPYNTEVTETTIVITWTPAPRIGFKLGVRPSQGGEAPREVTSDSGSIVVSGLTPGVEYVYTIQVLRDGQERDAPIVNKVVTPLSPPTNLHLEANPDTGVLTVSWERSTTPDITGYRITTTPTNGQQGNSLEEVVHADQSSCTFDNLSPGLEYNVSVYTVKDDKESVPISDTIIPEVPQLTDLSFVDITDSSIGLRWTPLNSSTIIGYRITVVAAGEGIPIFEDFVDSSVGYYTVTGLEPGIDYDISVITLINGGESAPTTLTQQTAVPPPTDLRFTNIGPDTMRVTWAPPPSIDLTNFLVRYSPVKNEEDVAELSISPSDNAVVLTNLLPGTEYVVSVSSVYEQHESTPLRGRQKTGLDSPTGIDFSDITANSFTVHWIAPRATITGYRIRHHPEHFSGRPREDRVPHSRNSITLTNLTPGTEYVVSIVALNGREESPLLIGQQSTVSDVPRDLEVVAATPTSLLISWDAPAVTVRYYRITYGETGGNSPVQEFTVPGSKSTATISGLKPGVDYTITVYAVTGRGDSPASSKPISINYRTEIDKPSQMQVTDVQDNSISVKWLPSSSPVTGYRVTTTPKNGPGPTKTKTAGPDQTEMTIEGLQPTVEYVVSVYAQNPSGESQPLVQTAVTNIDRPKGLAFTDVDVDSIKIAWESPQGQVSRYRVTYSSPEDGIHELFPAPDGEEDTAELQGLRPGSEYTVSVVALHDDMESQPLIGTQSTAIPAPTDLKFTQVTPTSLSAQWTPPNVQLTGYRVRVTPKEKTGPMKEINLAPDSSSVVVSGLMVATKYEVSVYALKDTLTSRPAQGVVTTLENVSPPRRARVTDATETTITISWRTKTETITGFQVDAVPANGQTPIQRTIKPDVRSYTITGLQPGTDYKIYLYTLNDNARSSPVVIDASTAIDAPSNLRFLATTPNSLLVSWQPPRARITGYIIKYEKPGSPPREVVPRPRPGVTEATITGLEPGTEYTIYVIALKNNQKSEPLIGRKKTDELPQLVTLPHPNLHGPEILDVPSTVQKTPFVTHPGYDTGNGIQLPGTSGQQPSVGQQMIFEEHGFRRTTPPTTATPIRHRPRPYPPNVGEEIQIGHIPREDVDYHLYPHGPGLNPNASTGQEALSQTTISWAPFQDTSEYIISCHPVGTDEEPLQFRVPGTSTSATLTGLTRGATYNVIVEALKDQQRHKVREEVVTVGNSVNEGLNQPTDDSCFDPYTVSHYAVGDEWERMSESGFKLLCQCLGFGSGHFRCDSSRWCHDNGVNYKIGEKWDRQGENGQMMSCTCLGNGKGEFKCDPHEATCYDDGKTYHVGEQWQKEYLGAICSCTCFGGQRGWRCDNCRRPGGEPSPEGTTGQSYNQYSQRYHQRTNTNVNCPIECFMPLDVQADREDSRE

[3] = variants of: B1; conditions: with co4a2_human COL4A2, P08572
Sequence of co4a2_human COL4A2, P08572 (P08572 whole entry): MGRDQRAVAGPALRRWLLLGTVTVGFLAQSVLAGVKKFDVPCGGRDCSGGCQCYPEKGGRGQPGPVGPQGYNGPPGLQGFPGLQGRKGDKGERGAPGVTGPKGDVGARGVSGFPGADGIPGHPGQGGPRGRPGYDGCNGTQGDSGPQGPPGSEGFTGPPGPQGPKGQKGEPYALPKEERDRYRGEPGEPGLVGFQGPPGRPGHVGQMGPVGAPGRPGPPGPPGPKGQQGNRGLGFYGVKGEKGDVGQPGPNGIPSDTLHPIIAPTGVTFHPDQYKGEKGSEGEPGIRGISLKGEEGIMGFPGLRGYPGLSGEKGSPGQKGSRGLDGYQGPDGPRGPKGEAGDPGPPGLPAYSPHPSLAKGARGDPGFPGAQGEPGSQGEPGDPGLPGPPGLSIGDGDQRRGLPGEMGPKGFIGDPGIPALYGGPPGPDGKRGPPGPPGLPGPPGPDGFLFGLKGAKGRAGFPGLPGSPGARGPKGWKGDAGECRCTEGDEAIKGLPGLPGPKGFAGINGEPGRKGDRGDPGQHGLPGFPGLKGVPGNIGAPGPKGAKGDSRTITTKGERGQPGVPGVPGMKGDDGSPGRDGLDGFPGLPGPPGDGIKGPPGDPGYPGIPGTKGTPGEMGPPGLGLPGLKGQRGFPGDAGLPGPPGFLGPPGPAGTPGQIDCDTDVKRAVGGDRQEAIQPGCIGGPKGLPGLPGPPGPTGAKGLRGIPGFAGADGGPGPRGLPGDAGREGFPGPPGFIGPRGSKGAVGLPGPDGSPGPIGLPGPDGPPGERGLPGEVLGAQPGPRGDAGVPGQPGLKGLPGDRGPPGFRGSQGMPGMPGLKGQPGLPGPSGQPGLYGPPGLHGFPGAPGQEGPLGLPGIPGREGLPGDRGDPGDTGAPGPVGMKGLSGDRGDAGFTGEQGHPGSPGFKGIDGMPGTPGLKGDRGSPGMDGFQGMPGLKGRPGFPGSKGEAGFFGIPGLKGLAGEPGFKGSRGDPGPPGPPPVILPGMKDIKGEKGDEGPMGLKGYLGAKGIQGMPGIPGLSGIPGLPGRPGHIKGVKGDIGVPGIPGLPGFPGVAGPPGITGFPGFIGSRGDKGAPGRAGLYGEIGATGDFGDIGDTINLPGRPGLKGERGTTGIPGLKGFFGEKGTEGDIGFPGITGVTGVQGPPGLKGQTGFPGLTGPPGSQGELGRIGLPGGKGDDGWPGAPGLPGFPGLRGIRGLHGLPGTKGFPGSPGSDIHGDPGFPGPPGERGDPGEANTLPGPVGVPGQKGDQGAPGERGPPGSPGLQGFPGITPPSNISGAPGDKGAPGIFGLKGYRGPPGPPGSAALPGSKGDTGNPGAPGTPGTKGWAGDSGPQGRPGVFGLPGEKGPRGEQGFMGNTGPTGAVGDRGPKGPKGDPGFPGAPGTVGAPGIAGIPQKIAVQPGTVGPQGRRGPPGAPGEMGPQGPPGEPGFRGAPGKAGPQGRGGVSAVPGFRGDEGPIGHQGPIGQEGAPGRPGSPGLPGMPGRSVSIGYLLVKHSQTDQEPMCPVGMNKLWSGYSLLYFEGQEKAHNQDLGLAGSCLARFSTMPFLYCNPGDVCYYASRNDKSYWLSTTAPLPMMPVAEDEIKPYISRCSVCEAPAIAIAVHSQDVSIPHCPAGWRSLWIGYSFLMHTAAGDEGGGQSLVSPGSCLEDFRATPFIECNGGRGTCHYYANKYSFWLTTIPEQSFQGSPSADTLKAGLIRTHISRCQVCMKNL

[4] = variants of: B1; conditions: with emil2_human EMILIN2, Q9BXX0
[5] = variants of: B1; conditions: with hmcn1_human HMCN1, Q96RW7
psg9_human PSG9, Q00887 = variants of: B1; conditions: with psg9_human PSG9, Q00887
Sequence of psg9_human PSG9, Q00887 (Q00887 whole entry): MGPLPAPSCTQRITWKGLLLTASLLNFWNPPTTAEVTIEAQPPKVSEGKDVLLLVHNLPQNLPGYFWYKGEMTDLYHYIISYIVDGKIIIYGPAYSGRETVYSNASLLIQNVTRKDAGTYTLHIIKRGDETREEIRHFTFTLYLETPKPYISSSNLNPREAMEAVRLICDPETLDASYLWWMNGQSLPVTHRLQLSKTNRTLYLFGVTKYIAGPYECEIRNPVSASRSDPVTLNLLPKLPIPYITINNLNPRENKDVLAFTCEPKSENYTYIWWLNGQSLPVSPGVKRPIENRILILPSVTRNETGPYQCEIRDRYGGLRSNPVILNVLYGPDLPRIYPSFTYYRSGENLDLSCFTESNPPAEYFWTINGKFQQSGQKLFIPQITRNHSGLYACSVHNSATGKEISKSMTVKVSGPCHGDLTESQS

[6] = variants of: B2; conditions: with fbln1_human FBLN1, P23142

Row | effect of a mutation on the interaction [1] | effect of a mutation on the interaction [2] | effect of a mutation on the interaction (finc_human FN1, P02751) | effect of a mutation on the interaction [3] | effect of a mutation on the interaction [4] | effect of a mutation on the interaction [5] | effect of a mutation on the interaction (psg9_human PSG9, Q00887) | effect of a mutation on the interaction [6] | Variant
1 | with no effect | with no effect | with no effect | with no effect | with no effect | with no effect | with no effect | – | MLRLYPGPMVTEAEGKGGPEMASLSSSVVPVSFISTLRESVLDPGVGGEGASDKQRSKLSLSHSMIPASKIHTELCLPAFFSPAGTQRRFQQPQHHLTLSIIHTAAR
2 | – | – | – | – | – | – | – | with no effect | MLRLYPGPMVTEAEGKGGPEMASLSSSVVPVSFISTLRESVLDPGVGGEGASDKQRSKLSLSHSMIPASKIHTELCLPAFFSPAGTQRRFQQPQHHLTLSIIHTAAR
